Values of other authors in PMC4411291.

Biological target: Calmodulin (UniProt P0DP23)

STIM2 C-terminal site (from UniProt Q9P246)
Kd: 1000 nM
